T1: hsGLUT4 I163A (human, UniProt P14672 1-509)
T1 sequence: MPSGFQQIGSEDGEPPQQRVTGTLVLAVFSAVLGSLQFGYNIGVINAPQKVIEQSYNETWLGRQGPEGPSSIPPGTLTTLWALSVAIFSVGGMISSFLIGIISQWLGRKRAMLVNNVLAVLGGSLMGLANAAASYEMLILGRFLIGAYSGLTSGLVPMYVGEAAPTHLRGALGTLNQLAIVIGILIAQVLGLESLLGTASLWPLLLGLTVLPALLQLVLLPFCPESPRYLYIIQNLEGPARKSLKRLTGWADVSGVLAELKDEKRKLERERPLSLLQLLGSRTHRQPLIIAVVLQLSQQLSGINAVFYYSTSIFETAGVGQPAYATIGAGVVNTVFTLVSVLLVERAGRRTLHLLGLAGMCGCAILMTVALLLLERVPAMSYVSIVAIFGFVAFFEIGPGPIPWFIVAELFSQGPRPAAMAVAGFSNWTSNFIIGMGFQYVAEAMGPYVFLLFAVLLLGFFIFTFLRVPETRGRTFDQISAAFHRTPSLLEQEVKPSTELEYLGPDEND

T2: hsGLUT4 V306A (human, UniProt P14672 1-509)
T2 sequence: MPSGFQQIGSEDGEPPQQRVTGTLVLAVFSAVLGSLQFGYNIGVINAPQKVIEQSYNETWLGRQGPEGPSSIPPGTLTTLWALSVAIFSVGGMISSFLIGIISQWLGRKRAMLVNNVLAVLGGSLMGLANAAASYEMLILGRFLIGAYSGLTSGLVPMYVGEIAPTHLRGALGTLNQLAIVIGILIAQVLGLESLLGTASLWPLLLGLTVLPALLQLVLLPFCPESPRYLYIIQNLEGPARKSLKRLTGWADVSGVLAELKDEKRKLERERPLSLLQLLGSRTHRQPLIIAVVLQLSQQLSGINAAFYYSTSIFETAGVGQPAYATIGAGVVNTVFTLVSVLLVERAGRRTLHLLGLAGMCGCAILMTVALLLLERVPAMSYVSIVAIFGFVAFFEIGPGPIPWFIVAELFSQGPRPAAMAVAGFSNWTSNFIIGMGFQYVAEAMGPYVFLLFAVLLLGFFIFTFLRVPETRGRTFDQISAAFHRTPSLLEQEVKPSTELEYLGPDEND

T3: hsGLUT4 N508A (human, UniProt P14672 1-509)
T3 sequence: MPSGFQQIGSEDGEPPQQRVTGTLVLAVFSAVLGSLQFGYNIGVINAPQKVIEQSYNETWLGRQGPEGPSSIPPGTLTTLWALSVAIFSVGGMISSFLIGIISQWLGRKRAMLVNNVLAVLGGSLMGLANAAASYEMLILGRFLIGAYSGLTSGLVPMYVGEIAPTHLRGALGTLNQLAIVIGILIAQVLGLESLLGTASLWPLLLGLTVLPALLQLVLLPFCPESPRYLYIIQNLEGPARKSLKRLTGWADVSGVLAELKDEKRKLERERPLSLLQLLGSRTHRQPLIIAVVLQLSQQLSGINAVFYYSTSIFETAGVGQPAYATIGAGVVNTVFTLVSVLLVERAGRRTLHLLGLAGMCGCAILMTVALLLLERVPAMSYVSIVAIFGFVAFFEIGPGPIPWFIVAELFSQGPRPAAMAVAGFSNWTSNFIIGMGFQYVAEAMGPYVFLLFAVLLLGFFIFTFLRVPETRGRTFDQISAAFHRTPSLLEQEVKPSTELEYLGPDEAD

T4: hsGLUT4 Y309A (human, UniProt P14672 1-509)
T4 sequence: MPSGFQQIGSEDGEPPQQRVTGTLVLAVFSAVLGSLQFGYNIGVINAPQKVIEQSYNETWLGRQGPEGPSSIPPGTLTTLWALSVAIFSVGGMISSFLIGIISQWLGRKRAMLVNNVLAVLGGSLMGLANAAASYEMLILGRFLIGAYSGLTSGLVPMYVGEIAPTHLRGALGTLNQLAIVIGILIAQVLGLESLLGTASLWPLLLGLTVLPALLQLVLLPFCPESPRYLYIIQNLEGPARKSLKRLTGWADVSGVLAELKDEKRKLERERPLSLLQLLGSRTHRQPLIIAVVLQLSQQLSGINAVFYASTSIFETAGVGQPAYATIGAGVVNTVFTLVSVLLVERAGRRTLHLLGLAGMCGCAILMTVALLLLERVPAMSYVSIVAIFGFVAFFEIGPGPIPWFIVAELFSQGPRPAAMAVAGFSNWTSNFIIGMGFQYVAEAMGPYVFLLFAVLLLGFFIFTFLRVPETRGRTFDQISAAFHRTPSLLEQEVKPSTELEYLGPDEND


Assays:
Test in all cases: flow cytometry, alanine-scan library in HEK-293T
hsGLUT4 I163A = biological target: T1, hsGLUT4 I163A
Experimental: (§1) Because of the state-dependence of the isolated MAbs, we next wished to understand the mechanism by which each MAb could recognize GLUT4 in its different conformations. The residues required for binding of each MAb were determined using shotgun mutagenesis comprehensive alanine scanning (Davidson E & Doranz B J (2014) A High-Throughput Shotgun Mutagenesis Approach to Mapping B-cell Antibody Epitopes. Immunology, which is hereby incorporated by reference in its entirety). All residues of hsGLUT4 were individually mutated to alanine, with existing alanines changed to serines. Mutations were obtained for 508 of the 509 residues of GLUT4 (excluding the initiating methionine). The entire mutation library was transfected into human HEK-293T cells in a 384-well array format (one clone per well) and assessed for immunoreactivity using high-throughput flow cytometry.
(§2) HEK-293T cells were transfected by CaPO₄ with plasmids in 6-well culture plates (Falcon) at 750,000 cells/well. At 48 hours post transfection, cells were stained with anti-V5 and anti-GLUT4 MAbs (purified scFv, 2 μg/ml) followed by biotinylated goat anti-mouse or human antibody (1:500) and streptavidin-PerCP (1:500). Fluorescence was detected using an Intellicyt high-throughput flow cytometer (HTFC; Intellicyt, Albuquerque, N. Mex.). For cell permeabilization, cells were treated with saponin at 0.1% in PBS for 20 minutes. To discriminate intact (live) and permeabilized (dead) cells without the use of detergent, propidium iodide (PI) was added to HEK-293T cells at 1 ug/ml just prior to flow cytometry. Where indicated, cytochalasin B (Sigma) was used at a final concentration of 10 uM and phloretin (Sigma) was used at a final concentration of 100 uM, each added in 10% NGS for 30 minutes prior to antibody staining as well as included with the primary antibody.

hsGLUT4 V306A = biological target: T2, hsGLUT4 V306A
Experimental: as §1, §2

hsGLUT4 N508A = biological target: T3, hsGLUT4 N508A
Experimental: as §1, §2

hsGLUT4 Y309A = biological target: T4, hsGLUT4 Y309A
Experimental: as §1, §2

| Molecule | % of binding to wild type GLUT4 (hsGLUT4 I163A) [%] | % of binding to wild type GLUT4 (hsGLUT4 V306A) [%] | % of binding to wild type GLUT4 (hsGLUT4 N508A) [%] | % of binding to wild type GLUT4 (hsGLUT4 Y309A) [%] |
| --- | --- | --- | --- | --- |
| 1F8 (antibody) | 91 | 74 | 21 | 75 |
| AB111 (Fc fusion, Bivalent scFv-Fc; also called MAb AB111; not shown: Fc fragment of human IgG1, cloned in frame with the scFv) scFv: ALTQPSSVSANPGETVKITCSGSGSWYGWFQQKSPGSAPVTVIYSNDKRPSDIPSRFSGSKSGSTSTLTITGVQVEDEAVYYCGNWDIFGAGTTLTVLGQSSRSSGGGGSSGGGGSAVTLDESGGGLQTPGGALSLVCKASGFTFSSHGMGWVRQAPGKGLEWVASISTGRYTFYAPAVKGRATISRDNGQSTVRLQLNNLRAEDTATYYCTKCAGLNGCGGGEIDAWGHGTEVIVSS | 87 | 171 | 193 | 110 |
| AB108 (Fc fusion, Bivalent scFv-Fc; also called MAb AB108; not shown: Fc fragment of human IgG1, cloned in frame with the scFv) scFv: ALTQPSSVSANLGGTVKITCSGSSGSYGWYQQKAPGSAPVTLIYRNDKRPSDIPSRFSGSESGSTGTLTITGVQAEDEAVYFCGGYDSSAGYAAFGAGTTLTVLGQSSRSSGGGGSSGGGGSAVTLDESGGGLQTPGGALSLVCKASGFTFSSHGMGWVRQAPGKGLEWVGSISTGRYTFYAPAVKGRATISRDNGQSTLRLQLNNLRAEDTGTYYCTKCAGLNGCGGGEIDAWGHGTEVIVSS | 90 | 83 | 89 | 91 |
| AB101 (scFv, Chicken-derived clone used as a control; the four lead clones were tested as scFv-human IgG1 Fc; also called MAb AB101) scFv: ALTQPSSVSANPGETVKITCSGSSNSYGWYQQKSPGSAPVTVIYYNDKRPSDIPSRFSGSKSDSTHTLTITGVRAEDEAVYFCGSYDSTYVGIFGAGTTLTVLGQSSRSSGGGGSSGGGGSAVTLDESGGGLQTPGGTLSLVCKASGFTFSSNAMGWVRQAPGKGLEWVAGISSDGRYTKYGSAVKGRATISRDNGQSTVRLQLNNLRAEDTGTYFCAKAFGNNYRRIYAGQIDAWGHGTEVIVSS | 115 | 91 | 7 | 64 |
